The supplement of paper PMC7877785
± gives the uncertainty stated by the source.

Experiment: self-splicing fitness, log relative to wild type (ln ratio); higher = more splicing; Tetrahymena group I intron in knt gene, E. coli kanamycin selection, DiMSum; sequences stand for … in CUCUCU…GGAGGGAAAAGUUAUCAGGCAUGCACCUGGUAGCUAGUCUUUAAACCAAUAGAUUGCAUCGGUUUAAAAGGCAAGACCGUCAAAUUGCGGGAAAGGGGUCAACAGCCGUUCAGUACCAAGUCUCAGGGGAAACUUUGAGAUGGCCUUGCAAAGGGUAUGGUAAUAAGCUGACGGACAUGGUCCUAACCACGCAGCCAAGUCCUAAGUCAACAGAUCUUCUGUUGAUAUGGAUGCAGUUCACAGACUAAAUGUCGGUCGGGGAAGAUGUAUUCUUCUCAUAAGAUAUAGUCGGACCUCUCCUUAAUGGGAGCUAGCGGAUGAAGUGAUGCAACACUGGAGCCGCUGGGAACUAAUUUGUAUGCGAAAGUAUAUUGAUUAGUUUUGGAGUACUCGUGGUCG
Summary of the method: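 A randomised library covering all eight P1ex-region intron nucleotides was built with the intron in the knt kanamycin-resistance gene on pET-22b(+) and held in E. coli BL21(DE3). Cells were grown overnight at 37°C or 30°C on LB agar, with or without 25 μg/mL kanamycin, plus 100 μg/mL carbenicillin, 50 μM IPTG and 0.2% rhamnose, and pooled colonies were amplicon-sequenced on an Illumina HiSeq 2500. DiMSum fitness is the error-weighted combination of wild-type-normalised replicate fold changes, kanamycin versus none.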

Row | Sequence | self-splicing fitness (ln) (30 °C) | self-splicing fitness (ln) (37 °C)
1 | GACGAGCAAUAUUACGGACU | -0.448 ± 0.15 | -0.75 ± 0.18
2 | GACGAGCAAUAUUACGGAGC | -4.4 ± 0.39 | -2.27 ± 0.22
3 | GACGAGCAAUAUUACGGAUA | -2.52 ± 0.24 | -2.55 ± 0.44
4 | GACGAGCAAUAUUACGGCCA |  | 0.241 ± 0.29
5 | GACGAGCAAUAUUACGGCCU | -1.85 ± 0.096 | -1.12 ± 0.14
6 | GACGAGCAAUAUUACGGCUC | -2.6 ± 0.12 | -1.41 ± 0.15
7 | GACGAGCAAUAUUACGGCUG | -1.82 ± 0.13 | -1.13 ± 0.13
8 | GACGAGCAAUAUUACGGGGA | -3.12 ± 0.22 | -2.37 ± 0.29
9 | GACGAGCAAUAUUACGGUCC | -3.83 ± 0.25 | -1.74 ± 0.23
10 | GACGAGCAAUAUUACGUAUU | -3.7 ± 0.21 | -2.44 ± 0.18
11 | GACGAGCAAUAUUACGUGAA |  | -2.29 ± 0.32
12 | GACGAGCAAUAUUACGUGCC | -1.56 ± 0.14 | -1.97 ± 0.26
13 | GACGAGCAAUAUUACGUGUA | -5.08 ± 0.25 | -2.49 ± 0.14
14 | GACGAGCAAUAUUACGUUGG | -3.34 ± 0.12 | -3.25 ± 0.22
15 | GACGAGCAAUAUUACGUUUA | -2.06 ± 0.14 | -0.752 ± 0.12
16 | GACUAGCAAUAUUACGAAUG | -2.65 ± 0.18 | -1.93 ± 0.17
17 | GACUAGCAAUAUUACGACGG | -2.2 ± 0.24 | -1.78 ± 0.35
18 | GACUAGCAAUAUUACGAGCA | -1.51 ± 0.14 | -0.564 ± 0.13
19 | GACUAGCAAUAUUACGAUAA | -0.678 ± 0.12 | -0.492 ± 0.13
20 | GACUAGCAAUAUUACGCUCC | -3.46 ± 0.47 | 
21 | GACUAGCAAUAUUACGCUGC | -3.53 ± 0.21 | -2.85 ± 0.28
22 | GACUAGCAAUAUUACGCUGG | -3.18 ± 0.21 | -2.13 ± 0.25
23 | GACUAGCAAUAUUACGGAAA | -1.53 ± 0.14 | -0.989 ± 0.14
24 | GACUAGCAAUAUUACGGGGU | -4.18 ± 0.17 | -2.91 ± 0.15
25 | GACUAGCAAUAUUACGGUAU | -1.3 ± 0.074 | -0.543 ± 0.092

Row | Sequence | self-splicing fitness (ln) (30 °C) | self-splicing fitness (ln) (37 °C)
26 | GACUAGCAAUAUUACGGUGG | -1.91 ± 0.072 | -1.27 ± 0.082
27 | GACUAGCAAUAUUACGUAGU | -2.84 ± 0.18 | -2.28 ± 0.27
28 | GACUAGCAAUAUUACGUCAU | -2.73 ± 0.17 | -1.1 ± 0.17
29 | GACUAGCAAUAUUACGUCCG |  | -1.5 ± 0.31
30 | GACUAGCAAUAUUACGUGAG | -2.07 ± 0.1 | -1.54 ± 0.14
31 | GACUAGCAAUAUUACGUGCC | -1.75 ± 0.12 | -1.58 ± 0.18
32 | GACUAGCAAUAUUACGUGCG | -1.3 ± 0.073 | -0.236 ± 0.091
33 | GACUAGCAAUAUUACGUGGG | -3.35 ± 0.13 | -1.96 ± 0.098
34 | GACUAGCAAUAUUACGUUGG | -2.85 ± 0.22 | -2.42 ± 0.39
35 | GAGAAGCAAUAUUACGAAAC | -2.29 ± 0.36 | -1.71 ± 0.48
36 | GAGAAGCAAUAUUACGCAAC | -1.48 ± 0.14 | -2.11 ± 0.26
37 | GAGAAGCAAUAUUACGCGCU | -2.03 ± 0.13 | -1.49 ± 0.13
38 | GAGAAGCAAUAUUACGGCAA | -0.843 ± 0.084 | 0.00427 ± 0.11
39 | GAGAAGCAAUAUUACGGCCU | -0.28 ± 0.07 | 0.2 ± 0.089
40 | GAGAAGCAAUAUUACGGCUU | -3.58 ± 0.33 | -1.75 ± 0.24
41 | GAGAAGCAAUAUUACGGGUU | -1.88 ± 0.11 | -1.87 ± 0.16
42 | GAGAAGCAAUAUUACGGUGA | -1.88 ± 0.15 | -0.755 ± 0.15
43 | GAGAAGCAAUAUUACGUAGU | -2.89 ± 0.094 | -1.39 ± 0.097
44 | GAGAAGCAAUAUUACGUGAA | -1 ± 0.1 | -1.23 ± 0.17
45 | GAGAAGCAAUAUUACGUGCU | -2.51 ± 0.21 | -0.848 ± 0.17
46 | GAGAAGCAAUAUUACGUUAG | -2.54 ± 0.19 | -2.08 ± 0.19
47 | GAGCAGCAAUAUUACGAAGA | -2.69 ± 0.45 | -1.14 ± 0.27
48 | GAGCAGCAAUAUUACGAAGC | -3.93 ± 0.25 | -2.21 ± 0.15
49 | GAGCAGCAAUAUUACGACAA | -1.41 ± 0.3 | -2.31 ± 0.2
